Experimental data reported in US20120014950A1, “Antibodies That Specifically Bind to DR3” (Xencor, Inc., priority 2010, published 2012).
Entries after “also recorded” stand apart in the source; their conditions may differ.

Experiments:
human DR3 [1] = molecular target: T1, human DR3 (Homo sapiens, UniProt Q93038); assay: TF-1 assay (cell viability, cycloheximide, Cell Titer Glo); assay type: cell-based; design: endogenous in cells; host or cells: TF-1 (premyeloid); conditions: TF-1 cells, 10 ng/mL hTL1A and cycloheximide; luminescence
T1 sequence (Q93038 25-417): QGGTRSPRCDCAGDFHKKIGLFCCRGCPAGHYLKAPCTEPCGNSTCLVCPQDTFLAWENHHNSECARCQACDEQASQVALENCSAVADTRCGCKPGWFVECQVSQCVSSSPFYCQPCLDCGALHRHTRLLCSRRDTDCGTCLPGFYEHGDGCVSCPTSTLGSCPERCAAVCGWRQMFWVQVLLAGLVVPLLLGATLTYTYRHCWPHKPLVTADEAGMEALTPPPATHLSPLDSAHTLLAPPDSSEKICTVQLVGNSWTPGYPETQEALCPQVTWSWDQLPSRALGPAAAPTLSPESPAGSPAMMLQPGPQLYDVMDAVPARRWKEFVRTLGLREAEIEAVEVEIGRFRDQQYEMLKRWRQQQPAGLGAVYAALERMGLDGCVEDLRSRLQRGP
Protocol: Treatment of TF-1 cells with human TL1A (the ligand for DR3) in the presence of cycloheximide induces cell death (Migone et al., Immunity 16:479-492 (2002)). A TF-1 assay was used to test the ability of 11H08 to block TL1A activity through the DR3 receptor.
A TF-1 assay can be performed according to methods known in the art. Briefly, premyeloid TF-1 cells are maintained in 10% FBS (fetal bovine serum), 1×RPMI, 1% Pen-Strep with Glutamine, and 2 ng/mL GM-CSF. The cells are grown until log phase, washed three times in PBS, and incubated with the antibodies to be tested for one hour. After this pre-incubation, between 50,000 and 100,000 cells are seeded per well. The cells are combined with 10 ng/mL hTL1A, 10 μg/mL cycloheximide (Sigma-Aldrich, cat #C1988-1G) and the antibodies to be tested and then incubated for 24 to 72 hours. Cell viability is measured using Cell Titer Glo (Promega, cat #G7570). This assay allows cell viability to be determined by measuring the luminescent signal which is proportional to the amount of ATP present. The ATP is indicative of metabolically active cells and higher luminescence signals reflect greater cell viability.
In order to test the effect of 11H08-scFv-HSA and the humanized anti-DR3-Fab molecules, a TF-1 assay was used to test the ability of these various anti-DR3 fragments to block TL1A induced activity. The TF-1 assay was performed as indicated above in Example 5, but where the various anti-DR3 fragments were used instead of the whole 11H08 immunoglobulin as described.

human DR3 [2] = molecular target: T1, human DR3; assay: TL1A binding inhibition assay (flow cytometry); design: expressed in transfected cells; host or cells: HEK293F (transient); conditions: HEK293F cells transiently expressing human DR3, 1 μg/mL human TL1A
Protocol: The anti-DR3 monoclonal antibody 11H08 was assayed for its ability to inhibit human TL1A binding to human DR3 using techniques known to those skilled in the art. Briefly, HEK293F cells transiently expressing human DR3 were incubated with 1 μg/mL of human TL1A in the presence of either an unrelated antibody (mIgG1) as an isotype control that was known not to bind TL1A or DR3, or an anti-DR3 monoclonal antibody (11H08), for 20 minutes at room temperature. Binding was detected using an anti-TL1A-biotin polyclonal antibody followed by Streptavidin PE. The ability of the anti-DR3 monoclonal antibody to inhibit binding of TL1A to DR3 was measured by flow cytometry.

human DR3 [3] = molecular target: T1, human DR3; assay: TF-1 assay (cell viability, cycloheximide, Cell Titer Glo); assay type: cell-based; design: endogenous in cells; host or cells: TF-1 (premyeloid); conditions: TF-1 cells with cycloheximide; luminescence
primary human T cells = assay: Primary human T cell assay (proliferation, cytokine secretion); assay type: cell-based
Protocol: A primary human T cell assay can be performed using standard methods known in the art. Briefly, primary human T cells are incubated with 100 ng/mL human TL1A ligand and appropriate concentrations of the antibody molecules to be tested for 72 hours. This incubation is followed by a 24 hour incubation with 5 ng/mL IL-2. Proliferation is measured by a standard luminescent protocol. The amount of cytokine secreted is determined by standard methods in the art.
A primary human T cell assay was performed to determine the effect of the 11H08-Fab-HSA on proliferation and the secretion of IFNγ or GM-CSF from cells treated with TL1A. […] 3 μg/mL 11H08-Fab-HSA, 3 μg/mL hDR3-Fc, or 3 μg/mL full length 11H08 immunoglobulin were used in this experiment. Results were compared to a set of cells treated only with media and cells that were treated only with 100 ng/mL TL1A, as indicated.

[4] = 100 ng/mL hTL1A, 3 μg/mL test molecule

B1: H5L2-Fab: humanized anti-DR3 Fab, VH H5 (SEQ ID NO:17), VL L2 (SEQ ID NO:22, Leu at Kabat 104) (antibody, V domains shown)
VH: EVQLLQSGAEVKKPGASVKVSCKASGFTFTNYAMSWVRQAPGQRLEWVATITSGGSYIYYLDSVKGRFTISRDNAKSTLHLQMNSLRAEDTAVYNCARRKDGNYYYAMDYWGQGTTVTVSS
VL: DIVLTQSPSSLSASVGDRVTITCRASESVDSYGNSFIHWYQQKPGQPPKLLIYRASNLESGIPARFSGSGSRTDFTLTISSLQPEDFATYYCQQSYEDPWTFGGGTKXEIK
modifications: Fab constant domains; humanized murine antibody
Human DR3 [1]
  inhibition of TL1A-induced apoptosis (TF-1 cell viability): inhibited TL1A-induced apoptosis in TF-1 cells

B2: 11H08: mouse anti-human DR3 monoclonal antibody, isotype IgG1κ, from hybridoma 11H08; VH SEQ ID NO:7, VL SEQ ID NO:20 (antibody, listed as Mus musculus, V domains shown)
VH: EVMLVESGGGLVKPGGSLKLSCAASGFTFTNYAMSWVRQTPEKRLEWVATITSGGSYIYYLDSVKGRFTISRDNAKSTLYLQMSSLRSEDTAIYNCARRKDGNYYYAMDYWGQGTSVTVSS
VL: DIVLTQSPASLAVSLGQRATISCRASESVDSYGNSFIHWYQQKAGQPPKLLIYRASNLESGIPARFSGSGSRTDFTLTINPVEADDVATYYCQQSYEDPWTFGGGTKLEIK
Human DR3 [2]
  inhibition of human TL1A binding to human DR3: inhibited human TL1A binding to the human DR3 receptor
Human DR3 [3]
  TF-1 cell viability / apoptosis induction (agonist, TL1A-like activity): activated the DR3 receptor, thereby inducing TL1A-like activity
Primary human T cells; 3 μg/mL antibody alone
  proliferation and cytokine secretion (agonist activity): induced TL1A-like activity

B3: H1L2-Fab: humanized anti-DR3 Fab, VH H1 (SEQ ID NO:9), VL L2 (SEQ ID NO:22, Leu at Kabat 104) (antibody, V domains shown)
VH: EVQLVESGGGLVKPGGSLRLSCAASGFTFTNYAMSWVRQAPGQRLEWVSTITSGGSYIYYLDSVKGRFTISRDNAKSTLYLQMNSLRAEDTAVYNCARRKDGNYYYAMDYWGQGTTVTVSS
VL: DIVLTQSPSSLSASVGDRVTITCRASESVDSYGNSFIHWYQQKPGQPPKLLIYRASNLESGIPARFSGSGSRTDFTLTISSLQPEDFATYYCQQSYEDPWTFGGGTKXEIK
modifications: Fab constant domains; humanized murine antibody
Human DR3 [1]
  inhibition of TL1A-induced apoptosis (TF-1 cell viability): inhibited TL1A-induced apoptosis in TF-1 cells

B4: 11H08-Fab: Fab of 11H08 VH/VL (SEQ ID NOs:7, 20) with human IgG1 CH1 and Cκ; parental anti-DR3 molecule (antibody, listed as Mus musculus, V domains shown)
VH: EVMLVESGGGLVKPGGSLKLSCAASGFTFTNYAMSWVRQTPEKRLEWVATITSGGSYIYYLDSVKGRFTISRDNAKSTLYLQMSSLRSEDTAIYNCARRKDGNYYYAMDYWGQGTSVTVSS
VL: DIVLTQSPASLAVSLGQRATISCRASESVDSYGNSFIHWYQQKAGQPPKLLIYRASNLESGIPARFSGSGSRTDFTLTINPVEADDVATYYCQQSYEDPWTFGGGTKLEIK
modifications: human IgG1 CH1 and Ckappa constant domains
notes: parental anti-DR3 molecule
Human DR3 [1]
  inhibition of TL1A-induced apoptosis (TF-1 cell viability): prevented TL1A-induced apoptosis; also recorded: inhibited TL1A-induced apoptosis in TF-1 cells

B5: hDR3-Fc: human DR3-Fc fusion protein, known to bind TL1A and inhibit activity (protein)
chain: QGGTRSPRCDCAGDFHKKIGLFCCRGCPAGHYLKAPCTEPCGNSTCLVCPQDTFLAWENHHNSECARCQACDEQASQVALENCSAVADTRCGCKPGWFVECQVSQCVSSSPFYCQPCLDCGALHRHTRLLCSRRDTDCGTCLPGFYEHGDGCVSCPTSTLGSCPERCAAVCGWRQ
modifications: left off: a dimerising Fc or GST
Primary human T cells; [4]
  TL1A-induced cell proliferation: inhibited
  TL1A-induced cytokine secretion (IFNγ, GM-CSF): inhibited
